Reference: patent publication US20030129189A1, “Tumor necrosis factor-gamma” (priority 1994, published 2003)
Read-outs that look alike come from different tables or passages of the source. Blank lines part the entries; values can stand above or below the molecule they belong to.

How the values were obtained:
[1] = target: T1, TNF-gamma-beta (Homo sapiens, UniProt O95150); assay: Inhibition of TNF-gamma-beta activation of NF-κB in 293T cells; format: cell-based
T1 construct: made in house; host or cells: E. coli (untagged) or 293T (FLAG-tagged)
T1 sequence (O95150 72-251): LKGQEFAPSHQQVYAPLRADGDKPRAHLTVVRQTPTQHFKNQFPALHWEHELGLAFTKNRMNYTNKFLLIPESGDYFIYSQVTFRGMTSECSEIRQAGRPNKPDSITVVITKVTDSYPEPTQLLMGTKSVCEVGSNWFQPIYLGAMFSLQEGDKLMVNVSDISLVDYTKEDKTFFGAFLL
Experimental: To avoid spontaneous apoptosis or NF-κB activation accompanied with DR3 overexpression, a limited amount of DR3-expression DNA that by itself minimally activated these pathways was used.
293T cells were transiently transfected using LipofectAMINE and PLUS reagents according to the manufacturer's instruction (Invitrogen). For reporter assays, 293T cells, at 5×10^5 cells/well, were seeded in 6-well plates and transfected with a total of 1 microgram of DNA. pC4 DNA was used as filler DNA. Conditioned supernatant was collected 24 hr post-transfection and assayed for secreted alkaline phosphatase (SEAP) activity using the Phospha-Light™ chemiluminescent reporter gene assay system (Tropix). pCMV-lacZ was used as internal control for transfection efficiency normalization.

[2] = test system: HUVEC cells; assay: Induction of TNF-gamma-beta mRNA in HUVEC cells; format: cell-based, human; conditions: for time of peak in expression of TNF-gamma-beta mRNA: after treatment; for TNF-gamma-beta mRNA level: stimulated HUVEC cells
Experimental: More TNF-gamma-beta mRNA was detected than that of TNF-gamma-alpha using both methods.
Total RNA was isolated from human cell lines and primary cells using TriZOL (Invitrogen). TaqMan was carried out in a 25 μl reaction containing 25 ng of total RNA, 0.6 μM each of gene-specific forward and reverse primers and 0.2 μM of gene-specific fluorescence probe. […] Gene-specific PCR products were measured using an ABI PRISM 7700 Sequence Detection System following the manufacturer's instruction (PE Corp.).

[3] = target: T2, full length TNF-gamma-beta on the cell surface (HEK293F stable transfectants; transfected cells) (human, UniProt O95150 1-251); assay: flow cytometry on HEK293F cells expressing full length TNF-gamma-beta
T2 construct: also called TNF-gamma-beta expressing cells
T2 sequence: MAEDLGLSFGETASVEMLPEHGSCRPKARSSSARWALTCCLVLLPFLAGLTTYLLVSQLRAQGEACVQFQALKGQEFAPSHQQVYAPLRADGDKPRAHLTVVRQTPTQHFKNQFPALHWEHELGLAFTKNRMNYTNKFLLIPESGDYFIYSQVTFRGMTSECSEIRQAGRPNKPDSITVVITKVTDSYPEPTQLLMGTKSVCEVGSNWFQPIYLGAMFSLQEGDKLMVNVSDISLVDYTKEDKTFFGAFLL
Experimental: TR6 has been previously described as a decoy receptor (Pitti et al., Nature 396:699-703 (1998); Yu et al., J. Biol. Chem. 274:13733-6 (1999)) capable of competing with Fas and HveA for binding of FasL and LIGHT, respectively.
One million cells, in 0.1 ml of FACS buffer (PBS, 0.1% BSA, 0.1% NaN₃), were incubated with 0.1-1 microgram of protein or antibody at RT for 15 min. The cells were washed with 3 ml of FACS buffer, reacted with biotinylated primary antibody, and stained with PE-conjugated secondary antibody at RT for 15 min. Cells were then washed again, resuspended in 0.5 microgram/ml of propidium iodide, and live cells were gated and analyzed on a FACScan using the CellQuest software (BD Biosciences).

[4] = target: T3, TNF-gamma-beta (Homo sapiens, UniProt O95150); assay: Coimmunoprecipitation of TNF-gamma-beta by TNFR-Fc proteins; format: binding
T3 construct: made in house; host or cells: 293T cells, transient transfection
T3 sequence (O95150 72-251 limits assumed): T1 sequence (O95150 72-251)
From the text: The beads were then precipitated and washed extensively with PBST buffer (PBS, 0.5% Triton X-100) before boiled in SDS-sample buffer. Proteins were resolved on 4-20% Tris-Glycine gels (NOVEX), transferred to nitrocellulose membranes, and blotted with anti-Flag M2 monoclonal antibody (1 microgram/ml, Sigma) andhorseradish peroxidase (HRP)-conjugated goat anti-mouse IgG antibody (0.5 microgram/ml).

[5] = test system: CB6F1 mice; assay: Parent-into-F1 acute graft-versus-host (in vivo MLR) model; set-up: species or system mouse; conditions: 3 mg/kg/day i.v. for 5 days
Experimental: Briefly, CB6F1 mice were injected with 1.5×10^8 pooled spleen cells of C57BL/6 mice administered intravenously on day 0.
The F1 (CB6F1) of C57BL/6×BALB/c mice (H-2^bxd) were transfused intravenously with 1.5×10^8 spleen cells from C57BL/6 mice (H-2^b) on day 0. […] The spleens of the recipient F1 mice were harvested on day 5, weighed and single cell suspensions prepared for in vitro assays.
Splenocytes from normal and the transfused F1 mice were cultured in triplicate in 96-well flat-bottomed plates (4×10^5 cells/200 microliters/well) for 2-4 days. After removing 100 microliters of supernatant per well on the day of harvest, 10 microliters Alamar Blue (Biosource) was added to each well and the cells cultured for additional 4 h. The cell number in each well was assessed according to OD590 nm minus OD530 nm background, using a CytoFluor apparatus (PerSeptive Biosystems). Cytokines in the culture supernatant were measured with commercial ELISA kits from Endogen or R & D Systems following manufacturer's instructions.

- inhibition of TNF-gamma-beta activation of NF-κB [1]: not able to inhibit
Molecule: TNFR1.Fc: Fc-fusion of TNFR1, control receptor [reference compound]
- inhibition of TNF-gamma-beta activation of NF-κB ([1]; listed as TNFR1-Fc): but not by the addition of Fas-Fc or TNFR1-Fc

- binding result [3]: no binding
B1: TNFR1-Fc (Fc fusion, UniProt P19438 30-211, looked up)
chain: LVPHLGDREKRDSVCPQGKYIHPQNNSICCTKCHKGTYLYNDCPGPGQDTDCRECESGSFTASENHLRHCLSCSKCRKEMGQVEISSCTVDRDTVCGCRKNQYRHYWSENLFQCFNCSLCLNGTVHLSCQEKQNTVCTCHAGFFLRENECVSCSNCKKSLECTKLCLPQIENVKGTEDSGTT
notes: extracellular domain; also called Fc-fusion form of the extracellular domain of TNFR1; not shown: Fc part of the fusion

- binding result [3]: no binding
B2: Fc-fusion form of the extracellular domain of RANK (Fc fusion, UniProt Q9Y6Q6 30-212, looked up)
chain: IAPPCTSEKHYEHLGRCCNKCEPGKYMSSKCTTTSDSVCLPCGPDEYLDSWNEEDKCLLHKVCDTGKALVAVVAGNSTTPRRCACTAGYHWSQDCECCRRNTECAPGLGAQHPLQLNKDTVCKPCLAGYFSDAFSSTDKCRPWTNCTFLGKRVEHHGTEKSDAVCSSSLPARKPPNEPHVYLP
notes: extracellular domain; not shown: Fc part of the fusion

- binding result [3]: no binding
B7: Fc-fusion form of the extracellular domain of DcR1 (Fc fusion, UniProt O14798 26-221, looked up)
chain: ATTARQEEVPQQTVAPQQQRHSFKGEECPAGSHRSEHTGACNPCTEGVDYTNASNNEPSCFPCTVCKSDQKHKSSCTMTRDTVCQCKEGTFRNENSPEMCRKCSRCPSGEVQVSNCTSWDDIQCVEEFGANATVETPAAEETMNTSPGTPAPAAEETMNTSPGTPAPAAEETMTTSPGTPAPAAEETMTTSPGTPA
notes: as for B2

- binding result [3]: no binding
B8: Fc-fusion form of the extracellular domain of OX40 (Fc fusion, UniProt P43489 29-214, looked up)
chain: LHCVGDTYPSNDRCCHECRPGNGMVSRCSRSQNTVCRPCGPGFYNDVVSSKPCKPCTWCNLRSGSERKQLCTATQDTVCRCRAGTQPLDSYKPGVDCAPCPPGHFSPGDNQACKPWTNCTLAGKHTLQPASNSSDAICEDRDPPATQPQETQGPPARPITVQPTEAWPRTSQGPSTRPVEVPGGRA
notes: as for B2

- binding result [3]: no binding
B9: Fc-fusion form of the extracellular domain of AITR (Fc fusion, UniProt Q9Y5U5 26-162, looked up)
chain: QRPTGGPGCGPGRLLLGTGTDARCCRVHTTRCCRDYPGEECCSEWDCMCVQPEFHCGDPCCTTCRHHPCPPGQGVQSQGKFSFGFQCIDCASGTFSGGHEGHCKPWTDCTQFGFLTVFPGNKTHNAVCVPGSPPAEP
notes: as for B2

- binding result [3]: no binding
B11: Fc-fusion form of the extracellular domain of DcR2 (Fc fusion, UniProt Q9UBN6 56-211, looked up)
chain: ATIPRQDEVPQQTVAPQQQRRSLKEEECPAGSHRSEYTGACNPCTEGVDYTIASNNLPSCLLCTVCKSGQTNKSSCTTTRDTVCQCEKGSFQDKNSPEMCRTCRTGCPRGMVKVSNCTPRSDIKCKNESAASSTGKTPAAEETVTTILGMLASPYH
notes: as for B2

Further lines, the molecule ahead of its results:

Molecule: CCCCCCCCCCCCCC(=O)O[C@@H]1[C@@H](C)[C@@]2(O)[C@@H](C=C(CO)C[C@]3(O)C(=O)C(C)=C[C@@H]23)[C@@H]2C(C)(C)[C@]12OC(C)=O [PMA, reference compound]
- time of peak in expression of TNF-gamma-beta mRNA [2]: 6 h
- TNF-gamma-beta mRNA level [2]: rapidly induced high levels of TNF-gamma-beta mRNA

Molecule: bFGF: growth factor stimulus of HUVEC cells [reference compound]
- TNF-gamma-beta mRNA level [2]: did not significantly affect the expression of TNF-gamma-beta

B3: Fas-Fc: extracellular domain of Fas (aa 1-169) fused to Fc of human IgG1 (protein)
chain: QVTDINSKGLELRKTVTTVETQNLEGLHHDGQFCHKPCPPGERKARDCTVNGDEPDCVPCQEGKEYTDKAHFSSKCRRCRLCDEGHGLEVEINCTRTQNTKCRCKPNFFCNSTVCEHCDPCTKCEHGIIKECTLTSNTKCKEEG
modifications: left off: a dimerising Fc or GST
notes: extracellular domain of Fas (aa 1-169) fused to Fc of human IgG1
- inhibition of TNF-gamma-beta activation of NF-κB [1]: but not by the addition of Fas-Fc or TNFR1-Fc
- immunoprecipitation of TNF-gamma-beta [4]: could not immunoprecipitate FLAG-TNF-gamma-beta

B4: IFNγ: cytokine stimulus of HUVEC cells (protein, UniProt P01579 24-161, looked up)
Interferon gamma: QDPYVKEAENLKKYFNAGHSDVADNGTLFLGILKNWKEESDRKIMQSQIVSFYFKLFKNFKDDQSIQKSVETIKEDMNVKFFNSNKKKRDDFEKLTNYSVTDLNVQRKAIHELIQVMAELSPAAKTGKRKRSQMLFRG
- TNF-gamma-beta mRNA level [2]: did not significantly affect the expression of TNF-gamma-beta

B5: IL-1α: cytokine stimulus of HUVEC cells (protein, UniProt P01583 113-271, looked up)
Interleukin-1 alpha: SAPFSFLSNVKYNFMRIIKYEFILNDALNQSIIRANDQYLTAAALHNLDEAVKFDMGAYKSSKDDAKITVILRISKTQLYVTAQDEDQPVLLKEMPEIPKTITGSETNLLFFWETHGTKNYFTSVAHPNLFIATKQDYWVCLAGGPPSITDFQILENQA
- time of peak in expression of TNF-gamma-beta mRNA [2]: 6 h
- TNF-gamma-beta mRNA level [2]: rapidly induced high levels of TNF-gamma-beta mRNA

B6: TACI-Fc: extracellular domain of TACI (aa 1-159) fused to Fc of human IgG1 (protein)
chain: MSGLGRSRRGGRSRVDQEERFPQGLWTGVAMRSCPEEQYWDPLLGTCMSCKTICNHQSQRTCAAFCRSLSCRKEQGKFYDHLLRDCISCASICGQHPKQCAYFCENKLRSPVNLPPELRRQRSGEVENNSDNSGRYQGLEHRGSEASPALPGLKLSADQ
modifications: left off: a dimerising Fc or GST
notes: extracellular domain of TACI (aa 1-159) fused to Fc of human IgG1
- immunoprecipitation of TNF-gamma-beta [4]: could not immunoprecipitate FLAG-TNF-gamma-beta

B10: TL5: another TNF family ligand used here as a control (protein, UniProt O43557 83-240, looked up)
Tumor necrosis factor ligand …: LIQERRSHEVNPAAHLTGANSSLTGSGGPLLWETQLGLAFLRGLSYHDGALVVTKAGYYYIYSKVQLGGVGCPLGLASTITHGLYKRTPRYPEELELLVSQQSPCGRATSSSRVWWDSSFLGGVVHLEAGEKVVVRVLDERLVRLRDGTRSYFGAFMV
- IL-2 production vs buffer group [5]: neither TNF-gamma-beta nor TL5 show any significant effect
- IL-12 production vs buffer group [5]: neither TNF-gamma-beta nor TL5 show any significant effect
- spleen weight vs buffer group [5]: no statistically significant difference from buffer group
- spontaneous (ex-vivo) splenocyte proliferation vs buffer group [5]: no statistically significant difference from buffer group
- GM-CSF production vs buffer group ([5]; splenocytes): no statistically significant difference from buffer group
- INF-gamma production vs buffer group ([5]; splenocytes): no statistically significant difference from buffer group
